Test results as given in paper PMC8558294, “Defects in the STIM1 SOARα2 domain affect multiple steps in the CRAC channel activation cascade” (Cellular and Molecular Life Sciences: CMLS, 2021).

Target: Orai1 V102A (human, UniProt Q96D31-1 1-301, V102A)
Assay: cell-based or functional assay

Chain of Orai1 V102A (Q96D31 whole entry V102A): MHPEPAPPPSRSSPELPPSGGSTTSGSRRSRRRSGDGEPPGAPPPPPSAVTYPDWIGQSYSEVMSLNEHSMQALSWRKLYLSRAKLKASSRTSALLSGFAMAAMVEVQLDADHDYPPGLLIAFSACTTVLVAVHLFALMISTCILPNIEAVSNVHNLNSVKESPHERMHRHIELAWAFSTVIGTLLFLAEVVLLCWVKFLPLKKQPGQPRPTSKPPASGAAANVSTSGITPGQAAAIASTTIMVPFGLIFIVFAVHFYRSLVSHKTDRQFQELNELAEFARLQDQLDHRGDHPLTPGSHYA

B1: STIM1 Δα2 (STIM1 Δ393-398), CFP/YFP-labeled (natural protein, human, UniProt Q13586-1 23-685, looked up)
chain: LSHSHSEKATGTSSGANSEESTAAEFCRIDKPLCHSEDEKLSFEAVRNIHKLMDDDANGDVDVEESDEFLREDLNYHDPTVKHSTFHGEDKLISVEDLWKAWKSSEVYNWTVDEVVQWLITYVELPQYEETFRKLQLSGHAMPRLAVTNTTMTGTVLKMTDRSHRQKLQLKALDTVLFGPPLLTRHNHLKDFMLVVSIVIGVGGCWFAYIQNRYSKEHMKKMMKDLEGLHRAEQSLHDLQERLHKAQEEHRTVEVEKVHLEKKLRDEINLAKQEAQRLKELREGTENERSRQKYAEEELEQVREALRKAEKELESHSSWYAPEALQKWLQLTHEVEVQYYNIKKQNAEKQLLVAKEGAEKIKKKRNTLFGSSSLDDVDHKILTAKQALSEVTAALRERLHRWQQIEILCGFQIVNNPGIHSLVAALNIDPSWMGSTRPNPAHFIMTDDVDDMDEEIVSPLSMQSPSLQSSVRQRLTEPQHGLGSQRDLTHSDSESSLHMSDRQRVAPKPPQMSRAADEALNAMTSNGSHRLIEGVHPGSLVEKLPDSPALAKKALLALNHGLDKAHSLMELSPSAPPGGSPHLDSSRSHSPSSPDPDTPSPVGDSRALQASRNTRIPHLAGKKAVAEEDNGSIGEETDSSPGRKKFPLKIFKKPLKK
Vrev [mV] of Orai1 V102A currents, whole-cell patch clamp in HEK293 cells: 31.6 mV
